What was measured:
[1] = tested on: T1, D-2 FLAG (branched peptide; branching symbol printed as an image)
T1 sequence 1: FFKY
T1 sequence 2: DYKDDDDKG

[2] = tested on: T2, L-2 FLAG (branched peptide; branching symbol printed as an image)
T2 sequence 1: XFKY
T2 sequence 2: DYKDDDDKG

## enterokinase (ENTK), enzyme added in solution
[1]
  circular dichroism after ENTK cleavage of the branch: the cleavage of the branch results in largely β-sheet (D-1) and random-coil (FLAG-tag) like secondary structures ... as well as for those of D-2 FLAG and L-2 FLAGs
[2]
  circular dichroism after ENTK cleavage of the branch: the cleavage of the branch results in largely β-sheet (D-1) and random-coil (FLAG-tag) like secondary structures ... as well as for those of D-2 FLAG and L-2 FLAGs
